PMC4791469

How the values were obtained:
[1] = molecular target: Chlamydomonas [FeFe]-hydrogenase HYDA1 (CrHYDA1) (Chlamydomonas reinhardtii)
[2] = molecular target: Chlamydomonas ferredoxin:NAD(P) reductase I (CrFNR1) (Chlamydomonas reinhardtii) (UniProt P53991)
Sequence of UniProt P53991 (P53991 36-354): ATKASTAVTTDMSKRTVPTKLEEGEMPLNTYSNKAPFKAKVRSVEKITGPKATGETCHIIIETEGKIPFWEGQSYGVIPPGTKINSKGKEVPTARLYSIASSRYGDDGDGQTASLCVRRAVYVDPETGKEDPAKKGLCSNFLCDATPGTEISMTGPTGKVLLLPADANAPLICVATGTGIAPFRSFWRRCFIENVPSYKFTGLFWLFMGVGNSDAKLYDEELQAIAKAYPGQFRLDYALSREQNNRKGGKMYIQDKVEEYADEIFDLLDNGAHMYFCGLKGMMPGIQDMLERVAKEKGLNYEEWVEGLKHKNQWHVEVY

| hydrogen photo-production rate (thylakoids, 100 nM HYDA1, light, gas chromatography) [1] | Km for the ferredoxin in FNR1-catalysed NADPH photo-production (thylakoids, 0.5 μM FNR1, varied FDX, Lineweaver-Burk) [2] | catalytic efficiency kcat/Km of FNR1-catalysed NADPH photo-production with this ferredoxin [2] | hydrogen photo-production rate (thylakoids, 100 nM HYDA1, light, gas chromatography) (µmol H2/µg Chl/h) [1] | Substance |
| --- | --- | --- | --- | --- |
| 489 | 0.4 µM | 1.7e+09 M⁻¹ s⁻¹ |  | Chlamydomonas reinhardtii ferredoxin 1 (CrFDX1), mature, tag cleaved (natural protein) |
| 86 | 0.18 µM | 3.5e+09 M⁻¹ s⁻¹ |  | Chlamydomonas reinhardtii ferredoxin 2 (CrFDX2), mature, wild type, tag cleaved (natural protein) |
|  | 0.69 µM |  | 150 | CrFDX2 (M62F) (natural protein) |
| 264 | 3.44 µM |  |  | CrFDX2 (M62F/∇95Y) (natural protein) |
| 134 | 0.38 µM |  |  | CrFDX2 (∇95Y) (natural protein) |
